Assay results taken from patent US20080003614A1 (University of Texas, published 2008).

Tests used:
[1] = biological target: T1, FADD (UniProt Q13158 1-208, limits assumed); assay: co-immunoprecipitation with MAVS antibody, overexpression in HEK293 cells (FIG. 12A)
T1 sequence (looked up): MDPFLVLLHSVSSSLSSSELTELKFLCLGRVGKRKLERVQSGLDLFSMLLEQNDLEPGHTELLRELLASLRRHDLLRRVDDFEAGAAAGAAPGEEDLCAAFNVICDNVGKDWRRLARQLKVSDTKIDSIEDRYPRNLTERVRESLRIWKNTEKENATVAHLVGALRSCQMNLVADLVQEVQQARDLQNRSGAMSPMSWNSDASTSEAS
Protocol: (§1) (FIG. 12A) Expression vectors encoding HA-MAVS and the indicated FLAG-tagged proteins were co-transfected into HEK293 cells. 36 hours after transfection, cells were lysed in a buffer containing 0.5% Triton-X100 and 150 mM NaCl, and the proteins associated with MAVS were co-immunoprecipitated with the polyclonal antibodies against MAVS or control IgG. After washing three times with a buffer containing 0.1% Triton-X100 and 150 mM NaCl, the immunoprecipitated beads were resuspended in SDS sample buffer, and the eluted proteins immunoblotted with an antibody against FLAG or HA as indicated. Lysate represents 10% of the starting materials used for immunoprecipitation.

[2] = biological target: T2, RIP1 (UniProt Q13546 1-671, limits assumed); assay: as above
T2 construct: also called RIPI
T2 sequence (looked up): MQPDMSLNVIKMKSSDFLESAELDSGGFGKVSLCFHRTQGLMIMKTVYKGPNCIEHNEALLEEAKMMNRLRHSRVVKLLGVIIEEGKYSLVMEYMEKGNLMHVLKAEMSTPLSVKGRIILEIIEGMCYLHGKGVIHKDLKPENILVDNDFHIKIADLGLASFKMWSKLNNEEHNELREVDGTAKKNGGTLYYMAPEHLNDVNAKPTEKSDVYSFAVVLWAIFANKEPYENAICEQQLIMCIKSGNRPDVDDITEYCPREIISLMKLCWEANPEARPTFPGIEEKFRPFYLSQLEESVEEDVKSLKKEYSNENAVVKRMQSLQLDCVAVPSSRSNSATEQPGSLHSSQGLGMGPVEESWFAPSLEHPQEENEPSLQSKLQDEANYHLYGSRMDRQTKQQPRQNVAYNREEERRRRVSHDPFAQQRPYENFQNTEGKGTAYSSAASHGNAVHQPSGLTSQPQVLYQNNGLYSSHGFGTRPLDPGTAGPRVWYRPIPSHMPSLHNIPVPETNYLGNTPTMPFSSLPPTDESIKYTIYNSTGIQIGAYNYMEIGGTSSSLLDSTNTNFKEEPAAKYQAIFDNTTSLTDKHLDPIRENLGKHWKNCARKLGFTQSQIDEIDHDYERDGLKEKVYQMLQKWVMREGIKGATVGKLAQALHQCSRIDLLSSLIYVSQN
Protocol: as §1

B1: HA-MAVS (N-terminal HA-tagged Mitochondrial Anti-Viral Signaling protein) (other)
chain: MPFAEDKTYKYICRNFSNFCNVDVVEILPYLPCLTARDQDRLRATCTLSGNRDTLWHLFNTLQRRPGWVEYFIAALRGCELVDLADEVASVYESYQPRTSDRPPDPLEPPSLPAERPGPPTPAAAHSIPYNSCREKEPSYPMPVQETQAPESPGENSEQALQTLSPRAIPRNPDGGPLESSSDLAALSPLTSSGHQEKDTELGSTHTAGATSSLTPSRGPVSPSVSFQPLARSTPRASRLPGPTGSVVSTGTSFSSSSPGLASAGAAEGKQGAESDQAEPIICSSGAEAPANSLPSKVPTTLMPVNTVALKVPANPASVSTVPSKLPTSSKPPGAVPSNALTNPAPSKLPINSTRAGMVPSKVPTSMVLTKVSASTVPTDGSSRNEETPAAPTPAGATGGSSAWLDSSFENRGLGSELSKPGVLASQVDSPFSGCFEDLAISASTSLGMGPCHGPEENEYKSEGTFGIHVAENPSIQLLEGNPGPPADPDGGPRPQADRKFQEREVPCHRPSPGALWLQVAVTGVLVVTLLVVLYRRRLH
notes: also called KIAA1271; pEF-HA-MAVS; not shown: N-terminal HA tag
binding result [1]: no binding | binding result [2]: no binding
